In patent publication US20250121082A1 (SHANDONG BOAN BIOTECHNOLOGY, published 2025):

T1: Human CD228 protein (human, UniProt P08582 20-708, limits assumed)
T1 construct: Recombinant protein made in CHO cells, purified over a Ni column; The printed entry begins with the leader (MRGPSG...) and ends with ten His; also called hCD228; CD228-His protein
T1 sequence: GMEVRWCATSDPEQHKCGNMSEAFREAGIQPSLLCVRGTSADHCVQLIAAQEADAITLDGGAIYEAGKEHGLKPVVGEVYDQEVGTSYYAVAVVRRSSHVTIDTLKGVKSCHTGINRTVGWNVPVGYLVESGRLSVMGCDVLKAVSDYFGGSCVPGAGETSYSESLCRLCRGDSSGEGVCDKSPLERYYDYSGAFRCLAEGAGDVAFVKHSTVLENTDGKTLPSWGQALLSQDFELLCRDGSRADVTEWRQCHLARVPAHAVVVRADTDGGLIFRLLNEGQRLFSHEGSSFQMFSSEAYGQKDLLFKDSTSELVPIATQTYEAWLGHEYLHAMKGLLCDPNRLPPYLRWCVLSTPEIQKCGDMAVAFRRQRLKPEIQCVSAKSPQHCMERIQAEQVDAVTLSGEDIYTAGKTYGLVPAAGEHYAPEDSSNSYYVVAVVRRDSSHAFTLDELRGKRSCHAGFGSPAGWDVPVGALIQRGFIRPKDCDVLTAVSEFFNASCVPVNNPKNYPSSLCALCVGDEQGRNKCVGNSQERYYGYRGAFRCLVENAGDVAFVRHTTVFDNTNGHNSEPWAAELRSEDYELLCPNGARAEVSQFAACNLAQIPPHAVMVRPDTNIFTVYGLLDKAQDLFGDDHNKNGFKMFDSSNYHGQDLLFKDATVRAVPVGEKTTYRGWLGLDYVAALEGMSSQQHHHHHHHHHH


Experiments:
Human CD228 protein [1] = biological target: T1, Human CD228 protein; experiment: Octet competition on His-chip CD228; competitor: CA518
Description: CD228 proteins were immobilized on His chips at 10 μg/mL with a threshold of 0.5 nm. The first CD228 antibody (30 μg/mL) was immobilized, and the competitive binding of the second CD228 antibody (30 μg/mL) was analyzed. The Octet 8K system was used to analyze the response of antibody 2 and to determine whether antibody 1 and antibody 2 were in competition.
The final competition analysis was conducted using the following calculation method: 1—response value/blank value.

Human CD228 protein [2] = biological target: T1, Human CD228 protein; experiment: affinity assay (method not given)

Binder	competition (1-response value/blank value) (Human CD228 protein [1]) [%]	Kd (Human CD228 protein [2]) [nM]
CA13 (antibody, human IgG1, kappa, V domains shown, Intact IgG1 from fully human antibody-transgenic mice) VH: EVQLVESGGGVVQPGRSLRLSCAASGFTFSSYAMHWVRQAPGKGLEWVAVISYDGSNKYYADSVKGRFTISRDNSKNTLFLQMNSLRAEDTAVYYCARDVYHYGSRSPYYYGMDVWGQGTTVTVSS VL: DIVMTQSPSSLSASVGDRVTITCRASQGISNYLAWFQQKPGKVPKLLIYAASTLQSGVPSRFSGSGSGTDFTLTISSLQPEDVATYYCQKYNSAPFTFGPGTKVDIKR	102	–
CA67 (antibody, human IgG1, kappa, V domains shown, Intact IgG1) VH: EVQLVESGGGVVQPGRSLRLSCAASGFTFSSYAMHWVRQAPGKGLEWVAVISYDGSNKYYADSVKGRFTISRDNSKNTLYLQMNSLRAEDTAVYYCARDVYHYGSRSPYYYGMDVWGQGTTVTVSS VL: DIQMTQSPSSLSASVGDRVTITCRASQAISNYLAWYQQKPGKVPKLLIYAASTLHPGVPSRFSGSGSGTDFTLTISSLQPEDVATYYCQKYNSAPFTFGPGTKVDIKR	103	–
BA352 (antibody, human IgG1, kappa, V domains shown, Intact IgG1) VH: EVQLVESGGGVVQPGRSLRLSCAASGFTFSSYAMHWVRQAPGKGLEWVAVISYDGSNKYYADSVKGRFTISRDNSKNTLYLQMNSLRAEDTAVYYCARGPYLAAAGTALTFDIWGQGTMVTVSS VL: DIQMTQSPSAMSASVGDRVTITCRASQGINNYLAWFQQKPGKVPKRLIYAASSLQSGVPSRFSGSGSGTEFTLTISSLQPEDFATYYCLQHNSYPFTFGPGTKVDIKR	-4	–

Results, then the binder that gave them:

competition (1-response value/blank value) (Human CD228 protein [1]) [%]	Kd (Human CD228 protein [2]) [nM]	Binder
101	–	CA518 (antibody, human IgG1, kappa, V domains shown, Intact IgG1) VH: EVQLVESGGGVVQPGRSLRLSCAASGFTFSSYAMHWVRQAPGKGLEWVAVISYDGSNKYHADSVKGRFTISRDNSKNTLFLQMNSLRAEDTAVYYCVRDVYHYGSRSPYYYGMDVWGQGTTVTVSS VL: DIQMTQSPSSVSASVGDRVTITCRASQGISSWLAWYQQKPGKAPKLLIYAASSLQSGVPSRFSGSGSGTDFTLTISSLQPEDVATYYCQKYNSAPFTFGPGTKVDIKR
-3	–	reference antibody hL49 (antibody, human IgG1, kappa, V domains shown, also called H149; hL49 analogy) VH: QVQLQESGPGLVKPSETLSLTCTVSGDSITSGYWNWIRQPPGKGLEYIGYISDSGITYYNPSLKSRVTISRDTSKNQYSLKLSSVTAADTAVYYCARRTLATYYAMDYWGQGTLVTVSS VL: DFVMTQSPLSLPVTLGQPASISCRASQSLVHSDGNTYLHWYQQRPGQSPRLLIYRVSNRFSGVPDRFSGSGSGTDFTLKISRVEAEDVGVYYCSQSTHVPPTFGQGTKLEIKR
98	1.99	CA149 (antibody, human IgG1, kappa, V domains shown, Intact IgG1; also called CA149 antibody) VH: EVQLVESGGGVVQPGRSLRLSCAASGFTFSSYAMHWVRQAPGKGLEWVAVISFDGSNKYYTDSVKGRFTISRDNSKNTLYLQMNSLRAEDTAVYYCAREVPYYYGSGPFDYWGQGTLVTVSS VL: EIVLTQSPATLSVSPGERATLSCRASQSVSSNLAWYQQKPGQAPRHLIDGASSRASGIPDRFSGSGSGTDFTLTISRLEPEDFAVYYCQQYGSSPPFTFGPGTKVDIKR
99	–	CA185 (antibody, human IgG1, kappa, V domains shown, Intact IgG1) VH: EVQLVESGGGVVQPGRSLRLSCAASGFTFSSYAMHWVRQAPGKGLEWVAVISYDGSNKYYADSVKGRFTISRDNSKNTLYLQMNSLRAEDTAVYYCAREVPYYYGSGPFDYWGQGTLVTVSS VL: EIVLTQSPGTLSLSPGERATLSCRASQSVSSSSLAWYQQKPGQAPRHLIDGASSRASGIPDRFSGSGSGTDFTLTISRLEPEDFAVYYCQQYGSSYTFGQGTKVDIKR
